# Reference: patent US20230374132A1 (Innovent, published 2023)
# Where two headings read alike, the source gives them in different places.
# Assays:
# [1] = molecular target: T1, human CD3 complex on Jurkat cells (human, UniProt P07766 23-207; P04234 22-171; P09693 23-182); test: flow cytometry on Jurkat cells (human CD3 complex), 'Jurkat cell line binding', Example 3.2 [cont) D]
# T1 construct: whole, on cells; natural CD3 complex of Jurkat T cells (also used here for CD3 on T cells of human PBMC); also called human CD3 at the cell level; CD3 on T cells
# Method: Jurkat cells are immortalized human T lymphocytes, which express human CD3 complex. The cell line is used to detect the binding of the antibody to the cell. The detailed operation was as follows: Jurkat cells (Promega, J1621) was inoculated into U-shaped 96-well plate, 2×10⁵ for each well. The antibodies to be detected at a series of concentration gradients (the initial concentration of antibody molecule is 500 nM, 3 folds serial dilution) was added into the corresponding cell well, incubated at 4° C. for 30 minutes, and then PBS was used to wash out the unbound part. The sheep anti-human Fc PE fluorescent second antibody (Southern Biotech, J2815-5H87B) was added, then incubated at 4° C. for 15 minutes. and detected by flow cytometry ([…] BD). […] Some of these antibodies were selected to make a further binding curve at cell level.
# [2] = molecular target: T2, cynomolgus monkey CD3 E&D complex protein (Sino Biological Inc., CT032-00323H) (cynomolgus monkey, UniProt Q95LI5 22-117; Q95LI8 22-105); test: BLI, antibody on sensor
# T2 construct: bought heterodimer
# Method: (§1) 100 μl SD buffer, various antibodies, human CD3 E&D complex protein (Sino Biological Inc., CT026H0323H), and cynomolgus monkey CD3 E&D complex protein (Sino Biological Inc., CT032-00323H) were added into 96-well black polystyrene semi-quantitative micro-well plate (Greiner, 675076) respectively. Fortebio Octet Red 96 was used for detection, and the sensor position was selected according to the sample position. The setting parameters of the instrument are as follows: operation steps: Baseline, Loading-1 nm, Baseline, Association and Dissociation; the operation time of each step depends on the speed of sample association and dissociation. The rotational speed is 1000 rpm and the temperature is 30° C. ForteBio Octet analysis software was used to analyze KD value.
# [3] = molecular target: T3, human CD3 E&D complex protein (Sino Biological Inc., CT026H0323H) (human, UniProt P07766 23-126; P04234 22-105); test: BLI, antibody on sensor
# T3 construct: bought heterodimer; also called human CD3 protein (CT026H0323H)
# Method: as §1
# [4] = molecular target: T4, human CD3E&G complex (Sino Biological Inc., CT041-H0305H) (human, UniProt P07766 23-126; P09693 23-116); test: BLI, antibody on sensor
# T4 construct: bought heterodimer; also called human CD3E&G antigen
# [5] = molecular target: T3, human CD3 E&D complex protein (Sino …); test: BLI, antibody on sensor; remark: listed apart in the source
# [6] = molecular target: T4, human CD3E&G complex (Sino Biological …); test: SPR, antigen on chip
# Method: (§2) The CD3 equilibrium dissociation constant (KD) of Her2×CD3 bispecific antibody was determined using Biacore (GE Healthcare, T200), and the specific method is as follows:
# (§3) The human CD3E&G antigen (Sino Biological Inc., CT041-H0305H) and Cynomolgus monkey CD3E&D antigen protein (Sino Biological Inc., CT032-00323H) were coupled to the chip surface. Afterwards, the affinity and kinetic constants were obtained by detecting the binding and dissociation between the chip surface antigen and the antibody in the mobile phase. The method includes chip preparation and affinity detection. 10-fold diluted 10×HBS-EP+(BR-1006-69, GE Healthcare) was used as the experimental buffer during measurement. […] After coupling, 1 M ethanolamine was injected to block the remaining activation sites. Affinity detection cycle is carried out for each concentration of antibody, and each cycle includes binding to antibody with this concentration and chip regeneration. The antibody after serial dilution (Her2-sp34.24: initial concentration 32 nM, 2 folds serial dilution; Her2-sp34.87: initial concentration 200 nM, 2 folds serial dilution; Her2-sp34.80, Her2-sp34.97, Her2-sp34.99, Her2-sp34.101: initial concentration 800 nM, 2 folds serial dilution; all dilute 5 concentration points), flows through the chip surface from low concentration to high concentration at 30 μl/min of the flow rate, with a binding time of 180 s and a dissociation time of 600 s. Finally, 10 mM Glycine pH 1.5 (BR-1003-54, GE Healthcare) was used to regenerate the chip. The data results were analyzed using the Biacore T200 analysis software (version 3.1), and the analysis model used was 1:1 combined model for dynamic analysis.
# [7] = molecular target: T2, cynomolgus monkey CD3 E&D complex …; test: SPR, antigen on chip
# Method: as §2, §3
# T3 sequence (P07766 23-126, chain 1 of 2): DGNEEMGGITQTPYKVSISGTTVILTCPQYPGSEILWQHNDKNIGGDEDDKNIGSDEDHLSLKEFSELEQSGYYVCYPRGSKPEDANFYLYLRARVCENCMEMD
# T3 sequence (P04234 22-105, chain 2 of 2): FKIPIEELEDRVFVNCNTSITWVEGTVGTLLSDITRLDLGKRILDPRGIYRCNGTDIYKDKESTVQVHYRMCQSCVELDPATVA
# T4 sequence (P07766 23-126, chain 1 of 2): as the sequence (P07766 23-126, chain 1 of 2) above
# T4 sequence (P09693 23-116, chain 2 of 2): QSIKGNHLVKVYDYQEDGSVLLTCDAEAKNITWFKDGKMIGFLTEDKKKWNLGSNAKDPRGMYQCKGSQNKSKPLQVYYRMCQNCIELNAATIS
# T2 sequence (Q95LI5 22-117, chain 1 of 2): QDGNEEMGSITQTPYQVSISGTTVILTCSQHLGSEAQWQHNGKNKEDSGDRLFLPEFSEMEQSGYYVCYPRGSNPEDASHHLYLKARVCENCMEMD
# T2 sequence (Q95LI8 22-105, chain 2 of 2): as the sequence (P04234 22-105, chain 2 of 2) above, with I5V, N15K, I20V, S32T, D33N, I34N, T64A, S74N, V83L counted along it
# T1 sequence (P07766 23-207, chain 1 of 3): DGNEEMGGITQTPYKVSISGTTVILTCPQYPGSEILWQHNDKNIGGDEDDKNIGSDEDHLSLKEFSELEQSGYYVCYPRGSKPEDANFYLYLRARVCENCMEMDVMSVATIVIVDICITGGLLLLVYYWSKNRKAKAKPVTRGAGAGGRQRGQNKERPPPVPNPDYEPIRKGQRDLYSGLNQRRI
# T1 sequence (P04234 22-171, chain 2 of 3): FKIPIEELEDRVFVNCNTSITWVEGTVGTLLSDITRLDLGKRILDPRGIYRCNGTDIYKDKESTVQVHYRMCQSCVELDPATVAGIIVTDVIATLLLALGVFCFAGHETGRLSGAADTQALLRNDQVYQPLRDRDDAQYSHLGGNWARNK
# T1 sequence (P09693 23-182, chain 3 of 3): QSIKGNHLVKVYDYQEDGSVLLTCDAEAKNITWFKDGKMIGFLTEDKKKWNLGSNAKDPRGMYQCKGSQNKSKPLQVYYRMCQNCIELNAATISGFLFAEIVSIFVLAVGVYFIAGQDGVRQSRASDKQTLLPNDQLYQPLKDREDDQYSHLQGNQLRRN
Binder,EC50 [1],Kd [2],koff [2],kon [2],Kd [3],koff [3],kon [3],Kd [4],koff [4],kon [4],Kd [5],koff [5],kon [5],Kd [6],koff [6],kon [6],Kd [7],koff [7],kon [7]
"hzsp34.24 (antibody, human IgG1, lambda, L234A L235A, V domains shown, IgG1 L234A L235A, lambda; parent of the CDR mutants) VH: EVQLVESGGGLVQPGGSLKLSCAASGFTFNTYAMNWVRQASGKGLEWVGRIRSKYNNYATYYADSVKDRFTISRDDSKSTLYLQMNSLKTEDTAVYYCARHGNFGQSYVSWFAYWGQGTTVTVSS VL: QAVVTQEPSLTVSPGGTVTLTCRSSTGAVTTSNYANWVQQKPGQAPRGLIGGTNKRAPGVPARFSGSLLGDKAALTLLGAQPEDEAEYYCALWYSNLWVFGQGTKLTVLG",1.25 nM,0.738 nM,0.000941 s⁻¹,1.28e+06 M⁻¹ s⁻¹,0.718 nM,0.00247 s⁻¹,3.44e+06 M⁻¹ s⁻¹,8 nM,0.00179 s⁻¹,224000 M⁻¹ s⁻¹,0.975 nM,0.000234 s⁻¹,240000 M⁻¹ s⁻¹,,,,,,
"Her2-hzsp34.24 (bispecific antibody, IgG1, V domains shown, 1+1 trastuzumab x hzsp34.24, IgG1 LALA knob-into-hole; also called Her2-sp34.24; copies: 1 + 1 + 1 + 1) VH 1: not shown VL 1: not shown VH 2: EVQLVESGGGLVQPGGSLKLSCAASGFTFNTYAMNWVRQASGKGLEWVGRIRSKYNNYATYYADSVKDRFTISRDDSKSTLYLQMNSLKTEDTAVYYCARHGNFGQSYVSWFAYWGQGTTVTVSS VL 2: QAVVTQEPSLTVSPGGTVTLTCRSSTGAVTTSNYANWVQQKPGQAPRGLIGGTNKRAPGVPARFSGSLLGDKAALTLLGAQPEDEAEYYCALWYSNLWVFGQGTKLTVL",,,,,,,,,,,,,,4.88 nM,0.00779 s⁻¹,1.6e+06 M⁻¹ s⁻¹,7.2 nM,0.008 s⁻¹,1.11e+06 M⁻¹ s⁻¹
"hzsp34.38 (antibody, human IgG1, kappa, L234A L235A, V domains shown, IgG1 L234A L235A, kappa) VH: EVQLVESGGGLVQPGGSLKLSCAASGFTFNTYAMNWVRQASGKGLEWVGRIRSKYNNYATYYADSVKDRFTISRDDSKSTLYLQMNSLKTEDTAVYYCARHGNFGNSYVSWFAYWGQGTTVTVSS VL: EIVMTQSPATLSVSPGERATLSCRSSTGAVTTSNYANWVQQKPGQAPRGLIGGTNKRAPGVPARFSGSGSGTEFTLTISSLQSEDFAVYYCALWYSNLWVFGQGTKLTVLR",7.85 nM,6.36 nM,0.00183 s⁻¹,288000 M⁻¹ s⁻¹,12.7 nM,0.00505 s⁻¹,397000 M⁻¹ s⁻¹,,,,,,,,,,,,
"Her2-hzsp34.87 (bispecific antibody, IgG1, V domains shown, 1+1 trastuzumab x hzsp34.87, IgG1 LALA knob-into-hole; also called Her2-sp34.87; copies: 1 + 1 + 1 + 1) VH 1: not shown VL 1: not shown VH 2: EVQLVESGGGLVQPGGSLKLSCAASGFTFNTYAMNWVRQASGKGLEWVGRIRSKYNNYATYYADSVKDRFTISRDDSKSTLYLQMNSLKTEDTAVYYCARHYNFGQSYVSWFAYWGQGTTVTVSS VL 2: QAVVTQEPSLTVSPGGTVTLTCRSSTGAVTTSNYANWVQQKPGQAPRGLIGGTNKRAPGVPARFSGSLLGDKAALTLLGAQPEDEAEYYCALWYSNLWVFGQGTKLTVL",,,,,,,,,,,,,,141 nM,0.0462 s⁻¹,327000 M⁻¹ s⁻¹,242 nM,0.035 s⁻¹,145000 M⁻¹ s⁻¹
"Her2-hzsp34.101 (bispecific antibody, IgG1, V domains shown, 1+1 trastuzumab x hzsp34.101, IgG1 LALA knob-into-hole; also called Her2-sp34.101; copies: 1 + 1 + 1 + 1) VH 1: not shown VL 1: not shown VH 2: EVQLVESGGGLVQPGGSLKLSCAASGFTFNTYAMNWVRQASGKGLEWVGRIRSKYNNYATYYADSVKDRFTISRDDSKSTLYLQMNSLKTEDTAVYYCARHGNFGQSAASWFAYWGQGTTVTVSS VL 2: QAVVTQEPSLTVSPGGTVTLTCRSSTGAVTTSNYANWVQQKPGQAPRGLIGGTNKRAPGVPARFSGSLLGDKAALTLLGAQPEDEAEYYCALWYSNLWVFGQGTKLTVL",,,,,,,,,,,,,,159 nM,0.101 s⁻¹,637000 M⁻¹ s⁻¹,179 nM,0.0987 s⁻¹,551000 M⁻¹ s⁻¹
